For eight molecules, Max effect and EC50 results are on record in patent US20250171562A1 (ALK ABELL, published 2025).

To fix the notation:
B1: NIgG4E1A1(G4S)2 (Fc fusion)
chain 1: DVQLQESGGGLVQAGGSLRLSCLASGRTFTTTSGYNMGWFRQAPGKEREFVAGIKWVSGSNRAYAESVKGRFTISRDNAKNTVYLQMNSLKPEDTAVYYCAAATGQSYVPIREYEYVYWGQGTQVTVSGGGGSGGGGSGPPCPPCPAPEFLGGPSVFLFPPKPKDTLMISRTPEVTCVVVDVSQEDPEVQFNWYVDGVEVHNAKTKPREEQFNSTYRVVSVLTVLHQDWLNGKEYKCKVSNKGLPSSIEKTISKAKGQPREPQVYTLPPCQEEMTKNQVSLWCLVKGFYPSDIAVEWESNGQPENNYKTTPPVLDSDGSFFLYSRLTVDKSRWQEGNVFSCSVMHEALHNHYTQKSLSLSLGK
chain 2: EVQLLESGGGLVQPGGSLRLSCAASGFTFGNYDMAWVRQAPGKRPEWVSSIDTGGDITHYADSVKGRFTISRDNAKNTLYLQMNSLRPEDTAVYWCATDEEYALGPNEFDYYGQGTLVTVSSGGGGSGGGGSGPPCPPCPAPEFLGGPSVFLFPPKPKDTLMISRTPEVTCVVVDVSQEDPEVQFNWYVDGVEVHNAKTKPREEQFNSTYRVVSVLTVLHQDWLNGKEYKCKVSNKGLPSSIEKTISKAKGQPREPQVCTLPPSQEEMTKNQVSLSCAVKGFYPSDIAVEWESNGQPENNYKTTPPVLDSDGSFFLVSRLTVDKSRWQEGNVFSCSVMHEALHNHYTQKSLSLSLGK
B2: NIgG4E1A1(G4S)1 (Fc fusion)
chain 1: DVQLQESGGGLVQAGGSLRLSCLASGRTFTTTSGYNMGWFRQAPGKEREFVAGIKWVSGSNRAYAESVKGRFTISRDNAKNTVYLQMNSLKPEDTAVYYCAAATGQSYVPIREYEYVYWGQGTQVTVSGGGGSGPPCPPCPAPEFLGGPSVFLFPPKPKDTLMISRTPEVTCVVVDVSQEDPEVQFNWYVDGVEVHNAKTKPREEQFNSTYRVVSVLTVLHQDWLNGKEYKCKVSNKGLPSSIEKTISKAKGQPREPQVYTLPPCQEEMTKNQVSLWCLVKGFYPSDIAVEWESNGQPENNYKTTPPVLDSDGSFFLYSRLTVDKSRWQEGNVFSCSVMHEALHNHYTQKSLSLSLGK
chain 2: EVQLLESGGGLVQPGGSLRLSCAASGFTFGNYDMAWVRQAPGKRPEWVSSIDTGGDITHYADSVKGRFTISRDNAKNTLYLQMNSLRPEDTAVYWCATDEEYALGPNEFDYYGQGTLVTVSSGGGGSGPPCPPCPAPEFLGGPSVFLFPPKPKDTLMISRTPEVTCVVVDVSQEDPEVQFNWYVDGVEVHNAKTKPREEQFNSTYRVVSVLTVLHQDWLNGKEYKCKVSNKGLPSSIEKTISKAKGQPREPQVCTLPPSQEEMTKNQVSLSCAVKGFYPSDIAVEWESNGQPENNYKTTPPVLDSDGSFFLVSRLTVDKSRWQEGNVFSCSVMHEALHNHYTQKSLSLSLGK
B3: NIgG4E1A1(RS) (Fc fusion)
chain 1: DVQLQESGGGLVQAGGSLRLSCLASGRTFTTTSGYNMGWFRQAPGKEREFVAGIKWVSGSNRAYAESVKGRFTISRDNAKNTVYLQMNSLKPEDTAVYYCAAATGQSYVPIREYEYVYWGQGTQVTVSRSGPPCPPCPAPEFLGGPSVFLFPPKPKDTLMISRTPEVTCVVVDVSQEDPEVQFNWYVDGVEVHNAKTKPREEQFNSTYRVVSVLTVLHQDWLNGKEYKCKVSNKGLPSSIEKTISKAKGQPREPQVYTLPPCQEEMTKNQVSLWCLVKGFYPSDIAVEWESNGQPENNYKTTPPVLDSDGSFFLYSRLTVDKSRWQEGNVFSCSVMHEALHNHYTQKSLSLSLGK
chain 2: EVQLLESGGGLVQPGGSLRLSCAASGFTFGNYDMAWVRQAPGKRPEWVSSIDTGGDITHYADSVKGRFTISRDNAKNTLYLQMNSLRPEDTAVYWCATDEEYALGPNEFDYYGQGTLVTVSSRSGPPCPPCPAPEFLGGPSVFLFPPKPKDTLMISRTPEVTCVVVDVSQEDPEVQFNWYVDGVEVHNAKTKPREEQFNSTYRVVSVLTVLHQDWLNGKEYKCKVSNKGLPSSIEKTISKAKGQPREPQVCTLPPSQEEMTKNQVSLSCAVKGFYPSDIAVEWESNGQPENNYKTTPPVLDSDGSFFLVSRLTVDKSRWQEGNVFSCSVMHEALHNHYTQKSLSLSLGK
B4: CIgG4D2A1(G4S)2 (Fc fusion)
chain 1: GPPCPPCPAPEFLGGPSVFLFPPKPKDTLMISRTPEVTCVVVDVSQEDPEVQFNWYVDGVEVHNAKTKPREEQFNSTYRVVSVLTVLHQDWLNGKEYKCKVSNKGLPSSIEKTISKAKGQPREPQVYTLPPCQEEMTKNQVSLWCLVKGFYPSDIAVEWESNGQPENNYKTTPPVLDSDGSFFLYSRLTVDKSRWQEGNVFSCSVMHEALHNHYTQKSLSLSLGKGGGGSGGGGSDVQLQESGGGLVEAGGSLRLSCVASGRTFSGWSMGWFRQAPGKEREFVAAISWVGSWIGGTVYSNSVKGRFTISRDNARTTVYLQMNSLKPEDTAVYFCAAANSETPRIFASEYDYWGQGTQVTVS
chain 2: GPPCPPCPAPEFLGGPSVFLFPPKPKDTLMISRTPEVTCVVVDVSQEDPEVQFNWYVDGVEVHNAKTKPREEQFNSTYRVVSVLTVLHQDWLNGKEYKCKVSNKGLPSSIEKTISKAKGQPREPQVCTLPPSQEEMTKNQVSLSCAVKGFYPSDIAVEWESNGQPENNYKTTPPVLDSDGSFFLVSRLTVDKSRWQEGNVFSCSVMHEALHNHYTQKSLSLSLGKGGGGSGGGGSEVQLLESGGGLVQPGGSLRLSCAASGFTFGNYDMAWVRQAPGKRPEWVSSIDTGGDITHYADSVKGRFTISRDNAKNTLYLQMNSLRPEDTAVYWCATDEEYALGPNEFDYYGQGTLVTVSS
B5: NIgG4E1A1(G4S)3 (Fc fusion)
chain 1: DVQLQESGGGLVQAGGSLRLSCLASGRTFTTTSGYNMGWFRQAPGKEREFVAGIKWVSGSNRAYAESVKGRFTISRDNAKNTVYLQMNSLKPEDTAVYYCAAATGQSYVPIREYEYVYWGQGTQVTVSGGGGSGGGGSGGGGSGPPCPPCPAPEFLGGPSVFLFPPKPKDTLMISRTPEVTCVVVDVSQEDPEVQFNWYVDGVEVHNAKTKPREEQFNSTYRVVSVLTVLHQDWLNGKEYKCKVSNKGLPSSIEKTISKAKGQPREPQVYTLPPCQEEMTKNQVSLWCLVKGFYPSDIAVEWESNGQPENNYKTTPPVLDSDGSFFLYSRLTVDKSRWQEGNVFSCSVMHEALHNHYTQKSLSLSLGK
chain 2: EVQLLESGGGLVQPGGSLRLSCAASGFTFGNYDMAWVRQAPGKRPEWVSSIDTGGDITHYADSVKGRFTISRDNAKNTLYLQMNSLRPEDTAVYWCATDEEYALGPNEFDYYGQGTLVTVSSGGGGSGGGGSGGGGSGPPCPPCPAPEFLGGPSVFLFPPKPKDTLMISRTPEVTCVVVDVSQEDPEVQFNWYVDGVEVHNAKTKPREEQFNSTYRVVSVLTVLHQDWLNGKEYKCKVSNKGLPSSIEKTISKAKGQPREPQVCTLPPSQEEMTKNQVSLSCAVKGFYPSDIAVEWESNGQPENNYKTTPPVLDSDGSFFLVSRLTVDKSRWQEGNVFSCSVMHEALHNHYTQKSLSLSLGK
B6: CIgG4E1A1(G4S)1 (Fc fusion)
chain 1: GPPCPPCPAPEFLGGPSVFLFPPKPKDTLMISRTPEVTCVVVDVSQEDPEVQFNWYVDGVEVHNAKTKPREEQFNSTYRVVSVLTVLHQDWLNGKEYKCKVSNKGLPSSIEKTISKAKGQPREPQVYTLPPCQEEMTKNQVSLWCLVKGFYPSDIAVEWESNGQPENNYKTTPPVLDSDGSFFLYSRLTVDKSRWQEGNVFSCSVMHEALHNHYTQKSLSLSLGKGGGGSDVQLQESGGGLVQAGGSLRLSCLASGRTFTTTSGYNMGWFRQAPGKEREFVAGIKWVSGSNRAYAESVKGRFTISRDNAKNTVYLQMNSLKPEDTAVYYCAAATGQSYVPIREYEYVYWGQGTQVTVS
chain 2: GPPCPPCPAPEFLGGPSVFLFPPKPKDTLMISRTPEVTCVVVDVSQEDPEVQFNWYVDGVEVHNAKTKPREEQFNSTYRVVSVLTVLHQDWLNGKEYKCKVSNKGLPSSIEKTISKAKGQPREPQVCTLPPSQEEMTKNQVSLSCAVKGFYPSDIAVEWESNGQPENNYKTTPPVLDSDGSFFLVSRLTVDKSRWQEGNVFSCSVMHEALHNHYTQKSLSLSLGKGGGGSEVQLLESGGGLVQPGGSLRLSCAASGFTFGNYDMAWVRQAPGKRPEWVSSIDTGGDITHYADSVKGRFTISRDNAKNTLYLQMNSLRPEDTAVYWCATDEEYALGPNEFDYYGQGTLVTVSS
B7: CIgG4E1A1(RS) (Fc fusion)
chain 1: GPPCPPCPAPEFLGGPSVFLFPPKPKDTLMISRTPEVTCVVVDVSQEDPEVQFNWYVDGVEVHNAKTKPREEQFNSTYRVVSVLTVLHQDWLNGKEYKCKVSNKGLPSSIEKTISKAKGQPREPQVYTLPPCQEEMTKNQVSLWCLVKGFYPSDIAVEWESNGQPENNYKTTPPVLDSDGSFFLYSRLTVDKSRWQEGNVFSCSVMHEALHNHYTQKSLSLSLGKRSDVQLQESGGGLVQAGGSLRLSCLASGRTFTTTSGYNMGWFRQAPGKEREFVAGIKWVSGSNRAYAESVKGRFTISRDNAKNTVYLQMNSLKPEDTAVYYCAAATGQSYVPIREYEYVYWGQGTQVTVS
chain 2: GPPCPPCPAPEFLGGPSVFLFPPKPKDTLMISRTPEVTCVVVDVSQEDPEVQFNWYVDGVEVHNAKTKPREEQFNSTYRVVSVLTVLHQDWLNGKEYKCKVSNKGLPSSIEKTISKAKGQPREPQVCTLPPSQEEMTKNQVSLSCAVKGFYPSDIAVEWESNGQPENNYKTTPPVLDSDGSFFLVSRLTVDKSRWQEGNVFSCSVMHEALHNHYTQKSLSLSLGKRSEVQLLESGGGLVQPGGSLRLSCAASGFTFGNYDMAWVRQAPGKRPEWVSSIDTGGDITHYADSVKGRFTISRDNAKNTLYLQMNSLRPEDTAVYWCATDEEYALGPNEFDYYGQGTLVTVSS
B8: CIgG4D2A1(G4S)3 (Fc fusion)
chain 1: GPPCPPCPAPEFLGGPSVFLFPPKPKDTLMISRTPEVTCVVVDVSQEDPEVQFNWYVDGVEVHNAKTKPREEQFNSTYRVVSVLTVLHQDWLNGKEYKCKVSNKGLPSSIEKTISKAKGQPREPQVYTLPPCQEEMTKNQVSLWCLVKGFYPSDIAVEWESNGQPENNYKTTPPVLDSDGSFFLYSRLTVDKSRWQEGNVFSCSVMHEALHNHYTQKSLSLSLGKGGGGSGGGGSGGGGSDVQLQESGGGLVEAGGSLRLSCVASGRTFSGWSMGWFRQAPGKEREFVAAISWVGSWIGGTVYSNSVKGRFTISRDNARTTVYLQMNSLKPEDTAVYFCAAANSETPRIFASEYDYWGQGTQVTVS
chain 2: GPPCPPCPAPEFLGGPSVFLFPPKPKDTLMISRTPEVTCVVVDVSQEDPEVQFNWYVDGVEVHNAKTKPREEQFNSTYRVVSVLTVLHQDWLNGKEYKCKVSNKGLPSSIEKTISKAKGQPREPQVCTLPPSQEEMTKNQVSLSCAVKGFYPSDIAVEWESNGQPENNYKTTPPVLDSDGSFFLVSRLTVDKSRWQEGNVFSCSVMHEALHNHYTQKSLSLSLGKGGGGSGGGGSGGGGSEVQLLESGGGLVQPGGSLRLSCAASGFTFGNYDMAWVRQAPGKRPEWVSSIDTGGDITHYADSVKGRFTISRDNAKNTLYLQMNSLRPEDTAVYWCATDEEYALGPNEFDYYGQGTLVTVSS

In this experiment the target is T1, recombinant human IgE (human, UniProt P01854-1 1-428).
T1 construct: made in-house (ALK); preloaded on immobilised FcεRIα in the displacement ELISA
T1 sequence (P01854 other isoform, or with tags, fused parts or gaps): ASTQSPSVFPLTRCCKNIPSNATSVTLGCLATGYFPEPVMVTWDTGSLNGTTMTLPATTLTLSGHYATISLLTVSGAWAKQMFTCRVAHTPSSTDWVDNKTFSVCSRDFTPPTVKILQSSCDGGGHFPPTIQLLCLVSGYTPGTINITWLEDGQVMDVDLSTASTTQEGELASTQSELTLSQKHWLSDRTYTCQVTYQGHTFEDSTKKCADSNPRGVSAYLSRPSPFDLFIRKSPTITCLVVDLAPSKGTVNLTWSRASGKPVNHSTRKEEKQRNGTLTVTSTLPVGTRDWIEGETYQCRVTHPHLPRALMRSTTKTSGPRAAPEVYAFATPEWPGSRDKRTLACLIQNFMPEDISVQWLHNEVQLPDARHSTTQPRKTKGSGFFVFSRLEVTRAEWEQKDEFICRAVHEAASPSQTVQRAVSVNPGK
In words: IgE-FcεRIα displacement ELISA. In outline: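 Streptavidin-coated plates carried site-specifically biotinylated recombinant human FcεRIα, loaded with recombinant human IgE at 13 ng/ml. sdAbs in a pM–μM series were added for 1 h, and displaced IgE was washed off. Percent displacement was the signal reduction versus the no-sdAb control, giving EC50 and maximal effect.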
B1: the Max effect was greater than 95%. On the same count and under the same terms, the figure for B2 is greater than 95%; for B3 it is greater than 95%. Consider B4, for which the EC50 was determined as 7 nM and the Max effect is greater than 95%. In the case of B5, the Max effect is greater than 95%. Consider B6, for which the EC50 was found to be 30 nM and the Max effect is greater than 95%. Regarding B7, the EC50 was 480 nM and the Max effect stood at 65%. Turning to B8, the half-maximal effective concentration (EC50) turned out to be 4.8 nM and the Max effect was greater than 95%.
